This is an account of results in patent US20040234498A1 (Genentech, published 2004).

Assay [1] has as its target T1, TNFR1 immunoadhesin (TNFR1 ECD fused to hinge and Fc portion of human IgG) (human, UniProt P19438 30-211, limits assumed).
T1 construct: extracellular domain; also called TNFR1-IgG; not shown: hinge and Fc portion of human IgG, as described in Ashkenazi et al. 1991
T1 sequence (looked up): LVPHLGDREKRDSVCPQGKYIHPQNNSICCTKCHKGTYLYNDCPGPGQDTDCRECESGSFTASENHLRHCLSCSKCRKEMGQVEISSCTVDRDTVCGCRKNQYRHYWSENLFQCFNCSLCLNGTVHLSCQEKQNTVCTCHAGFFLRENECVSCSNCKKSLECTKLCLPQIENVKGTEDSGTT
Nature of the assay: FACS on HUVEC cells (endogenous DNA19355 transcripts). As to the method:
The DNA19355 polypeptide was identified in a human umbilical vein endothelial cell (HUVEC) library, and the DNA19355 polypeptide transcripts are readily detectable in HUVEC by RT-PCR (data not shown). […] HUVEC cells were purchased from Cell Systems (Kirkland, Wash.) and grown in a 50:50 mix of Ham's F12 and Low Glucose DMEM media containing 10% fetal bovine serum, 2 mM L-glutamine, 10 mM Hepes, and 10 ng/ml basic FGF. Cells were FACS sorted with PBS, hGITR-IgG, TNFR1-IgG or Fas-IgG as a primary antibody and goat anti-human F(ab′)2 conjugated to phycoerythrin (CalTag, Burlingame, Calif.).

Assay [2] has as its target T2, TNFR2 immunoadhesin (TNFR2 ECD fused to hinge and Fc portion of human IgG) (human, UniProt P20333 23-257, limits assumed).
T2 construct: extracellular domain; not shown: hinge and Fc portion of human IgG, as described for TNFR1 in Ashkenazi et al. 1991
T2 sequence (looked up): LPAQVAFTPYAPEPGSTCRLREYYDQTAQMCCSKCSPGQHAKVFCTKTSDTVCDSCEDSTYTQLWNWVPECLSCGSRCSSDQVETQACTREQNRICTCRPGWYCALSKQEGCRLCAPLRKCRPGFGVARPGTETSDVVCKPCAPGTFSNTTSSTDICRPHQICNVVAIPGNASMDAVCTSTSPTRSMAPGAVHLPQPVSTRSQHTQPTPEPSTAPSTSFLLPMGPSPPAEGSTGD
Nature of the assay: co-precipitation with protein A-sepharose, SDS-PAGE, autoradiography. The protocol: (§1) A soluble DNA19355 polypeptide was also prepared by expressing the ECD in E. coli cells (as described in Example 3 above). The soluble DNA19355 ECD molecule was then labeled with ¹²⁵I. For comparison, immunoadhesin constructs were also made of the following TNF receptor family members: CD95, DR4, DR5, TNFR1, TNFR2, and Apo-3. CD95, DR4, DR5, TNFR1, TNFR2, and Apo-3 immunoadhesins were prepared by fusing each receptor's ECD to the hinge and Fc portion of human IgG, as described previously for TNFR1 [Ashkenazi et al., Proc. Natl. Acad. Sci., 88:10535-10539 (1991)]. The respective TNF receptor family members are described (and relevant references cited) in the Background of the Invention section.
(§2) For the co-precipitation assay, each immunoadhesin (5 microgram) was incubated with ¹²⁵I-labeled soluble DNA19355 polypeptide (1 microgram) for 1 hour at 24° C., followed by protein A-sepharose for 30 minutes on ice. The reaction mixtures were spun down and washed several times in PBS, boiled in SDS-PAGE buffer containing 20 mM dithiothreitol and then resolved by SDS-PAGE and autoradiography.

The target in assay [3] is T3, DR4 immunoadhesin (DR4 ECD fused to hinge and Fc portion of human IgG) (human, UniProt O00220 24-239, limits assumed).
T3 construct: extracellular domain; not shown: hinge and Fc portion of human IgG, as described for TNFR1 in Ashkenazi et al. 1991
T3 sequence (looked up): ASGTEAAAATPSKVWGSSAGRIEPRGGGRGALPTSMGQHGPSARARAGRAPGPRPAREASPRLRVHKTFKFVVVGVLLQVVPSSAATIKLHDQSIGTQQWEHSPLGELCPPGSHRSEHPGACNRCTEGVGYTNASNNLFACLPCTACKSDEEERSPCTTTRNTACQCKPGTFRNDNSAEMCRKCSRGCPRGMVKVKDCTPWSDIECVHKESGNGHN
Described as above. The protocol: as §1, §2

The target in assay [4] is T4, CD95 immunoadhesin (CD95 ECD fused to hinge and Fc portion of human IgG) (human, UniProt P25445 26-173, limits assumed).
T4 construct: extracellular domain; also called Fas-IgG; Fas/Apo1; not shown: hinge and Fc portion of human IgG, as described for TNFR1 in Ashkenazi et al. 1991
T4 sequence (looked up): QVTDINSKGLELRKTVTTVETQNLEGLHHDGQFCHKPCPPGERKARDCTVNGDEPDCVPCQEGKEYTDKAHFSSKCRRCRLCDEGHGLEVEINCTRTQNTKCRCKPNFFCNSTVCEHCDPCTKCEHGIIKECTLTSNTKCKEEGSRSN
The description is as above. As to the method:
as §1, §2

In assay [5] the target is T5, DR5 immunoadhesin (DR5 ECD fused to hinge and Fc portion of human IgG) (human, UniProt O14763 56-210, limits assumed).
T5 construct: extracellular domain; also called Apo-2; not shown: hinge and Fc portion of human IgG, as described for TNFR1 in Ashkenazi et al. 1991
The description is as above. The protocol: as §1, §2

Assay [6] concerns the target T6, Apo-3 immunoadhesin (Apo-3 ECD fused to hinge and Fc portion of human IgG) (human, UniProt Q93038 25-199).
T6 construct: extracellular domain; also called DR3; wsl-1; not shown: hinge and Fc portion of human IgG, as described for TNFR1 in Ashkenazi et al. 1991
T6 sequence (looked up): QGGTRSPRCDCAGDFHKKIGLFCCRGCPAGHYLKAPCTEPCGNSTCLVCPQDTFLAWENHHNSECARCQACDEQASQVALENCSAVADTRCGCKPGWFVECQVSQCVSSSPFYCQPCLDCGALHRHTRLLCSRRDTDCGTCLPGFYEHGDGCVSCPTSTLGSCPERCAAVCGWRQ
Described as above. The protocol: as §1, §2

Assay [7] deals with T1, TNFR1 immunoadhesin (TNFR1 ECD fused to …). The description is as above. As to the method: as §1, §2
The target of assay [8] is T7, human GITR (hGITR), full length, on cells (human, UniProt Q9Y5U5 26-241).
T7 sequence (looked up): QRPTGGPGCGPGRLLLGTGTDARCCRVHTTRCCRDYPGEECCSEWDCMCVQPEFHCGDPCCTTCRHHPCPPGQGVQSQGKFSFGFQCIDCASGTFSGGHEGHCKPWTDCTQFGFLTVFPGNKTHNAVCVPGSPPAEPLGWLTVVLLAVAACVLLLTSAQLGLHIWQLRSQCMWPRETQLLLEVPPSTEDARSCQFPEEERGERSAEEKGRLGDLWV
Nature of the assay: cell-based or functional assay.

B1: full length DNA19355 polypeptide on cells (ligand)
chain: MCLSHLENMPLSHSRTQGAQRSSWKLWLFCSIVMLLFLCSFSWLIFIFLQLETAKEPCMAKFGPLPSKWQMASSEPPCVNKVSDWKLEILQNGLYLIYGQVAPNANYNDVAPFEVRLYKNKDMIQTLTNKSKIQNVGGTYELHVGDTIDLIFNSEHQVLKNNTYWGIILLANPQFIS
notes: also called full-length DNA19355 protein; GLITTER
B1: the binding result in assay [1] is on record as “no binding”.

B2: soluble DNA19355 polypeptide (His10-tagged extracellular region, amino acids 52 to 177, expressed in E. coli) (ligand)
chain: MGHHHHHHHHHHSSGHIDDDDKHMETAKEPCMAKFGPLPSKWQMASSEPPCVNKVSDWKLEILQNGLYLIYGQVAPNANYNDVAPFEVRLYKNKDMIQTLTNKSKIQNVGGTYELHVGDTIDLIFNSEHQVLKNNTYWGIILLANPQFIS
modifications: 125I-labeled (radioiodinated) in the co-precipitation assay
notes: also called soluble DNA19355 ECD molecule; radioiodinated soluble DNA19355 polypeptide
Take B2: the binding result in assay [2], in assay [3], in assay [4], in assay [5], in assay [6] and in assay [7] was “no binding” each time. Also, the “secreted TNF-alpha levels from primary human T cells (ELISA of culture supernatants)” value in assay [8] is roughly 20 fold.
